# Assay results as given in patent publication US20140242093A1, “METHODS AND COMPOSITIONS FOR MODULATING THE INNATE IMMUNE RESPONSE AND/OR MYOGENESIS IN A MAMMALIAN SUBJECT” (FRED HUTCHINSON CANCER RESEARCH CENTER, priority 2011, published 2014).
# B1: DUX4-s: short splice form of DUX4 (SEQ ID NO:112), keeps the double-homeobox domains, lacks the C-terminal activation domain (protein, listed as Homo sapiens)
# chain: MALPTPSDSTLPAEARGRGRRRRLVWTPSQSEALRACFERNPYPGIATRERLAQAIGIPEPRVQIWFQNERSRQLRQHRRESRPWPGRRGPPEGRRKRTAVTGSQTALLLRAFEKDRFPGIAAREELARETGLPESRIQIWFQNRRARHPGQGGRAPAQV
# Columns and labels:
# Human myoblasts = experiment: Expression array of the innate immune response to lentiviral infection versus uninfected cells; type: cell-based
# Experimental: RNA was harvested from the lenti-viral infected cells and uninfected control cells at 24 hours after infection.
# [1] = test system: cultured human skeletal muscle cells; conditions: cited from earlier work
molecule,measurement,setting,value
B1,IFITM3 expression ratio vs NoLenti (.fc),"Human myoblasts; gene IFITM3 NM_021034.2, vs uninfected, 24 hours after infection",1.84 log2 fold change
same,IL1R1 expression ratio vs GFP (.fc),"Human myoblasts; gene IL1R1 NM_000877.2, vs lenti-GFP, 24 hours after infection",0.30 log2 fold change
same,IL1R1 expression ratio vs NoLenti (.fc),"Human myoblasts; gene IL1R1 NM_000877.2, vs uninfected, 24 hours after infection",1.61 log2 fold change
same,IL7R expression ratio vs GFP (.fc),"Human myoblasts; gene IL7R NM_002185.2, vs lenti-GFP, 24 hours after infection",0.57 log2 fold change
same,IL7R expression ratio vs NoLenti (.fc),"Human myoblasts; gene IL7R NM_002185.2, vs uninfected, 24 hours after infection",2.05 log2 fold change
same,IL8 expression ratio vs GFP (.fc),"Human myoblasts; gene IL8 NM_000584.2, vs lenti-GFP, 24 hours after infection",1.19 log2 fold change
same,IL8 expression ratio vs NoLenti (.fc),"Human myoblasts; gene IL8 NM_000584.2, vs uninfected, 24 hours after infection",4.69 log2 fold change
same,IL18BP expression ratio vs GFP (.fc),"Human myoblasts; gene IL18BP NM_173042.2, vs lenti-GFP, 24 hours after infection",1.40 log2 fold change
same,IL18BP expression ratio vs NoLenti (.fc),"Human myoblasts; gene IL18BP NM_173042.2, vs uninfected, 24 hours after infection",3.37 log2 fold change
same,IRF7 expression ratio vs GFP (.fc),"Human myoblasts; gene IRF7 NM_004029.2, vs lenti-GFP, 24 hours after infection",1.14 log2 fold change
same,IRF7 expression ratio vs NoLenti (.fc),"Human myoblasts; gene IRF7 NM_004029.2, vs uninfected, 24 hours after infection",3.99 log2 fold change
same,IRF9 expression ratio vs GFP (.fc),"Human myoblasts; gene IRF9 NM_006084.4, vs lenti-GFP, 24 hours after infection",0.29 log2 fold change
same,IRF9 expression ratio vs NoLenti (.fc),"Human myoblasts; gene IRF9 NM_006084.4, vs uninfected, 24 hours after infection",2.72 log2 fold change
same,MX1 expression ratio vs GFP (.fc),"Human myoblasts; gene MX1 NM_002462.2, vs lenti-GFP, 24 hours after infection",0.26 log2 fold change
same,MX1 expression ratio vs NoLenti (.fc),"Human myoblasts; gene MX1 NM_002462.2, vs uninfected, 24 hours after infection",7.49 log2 fold change
same,NFIL3 expression ratio vs GFP (.fc),"Human myoblasts; gene NFIL3 NM_005384.2, vs lenti-GFP, 24 hours after infection",0.32 log2 fold change
same,NFIL3 expression ratio vs NoLenti (.fc),"Human myoblasts; gene NFIL3 NM_005384.2, vs uninfected, 24 hours after infection",2.16 log2 fold change
same,NFKBIA expression ratio vs GFP (.fc),"Human myoblasts; gene NFKBIA NM_020529.1, vs lenti-GFP, 24 hours after infection",0.28 log2 fold change
same,NFKBIA expression ratio vs NoLenti (.fc),"Human myoblasts; gene NFKBIA NM_020529.1, vs uninfected, 24 hours after infection",2.46 log2 fold change
same,NFKBIZ expression ratio vs GFP (.fc),"Human myoblasts; gene NFKBIZ NM_001005474.1, vs lenti-GFP, 24 hours after infection",−0.26 log2 fold change
same,NFKBIZ expression ratio vs NoLenti (.fc),"Human myoblasts; gene NFKBIZ NM_001005474.1, vs uninfected, 24 hours after infection",1.58 log2 fold change
same,STAT1 expression ratio vs GFP (.fc),"Human myoblasts; gene STAT1 NM_007315.2, vs lenti-GFP, 24 hours after infection",0.82 log2 fold change
same,STAT1 expression ratio vs NoLenti (.fc),"Human myoblasts; gene STAT1 NM_007315.2, vs uninfected, 24 hours after infection",4.79 log2 fold change
same,STAT2 expression ratio vs GFP (.fc),"Human myoblasts; gene STAT2 NM_005419.2, vs lenti-GFP, 24 hours after infection",0.19 log2 fold change
same,STAT2 expression ratio vs NoLenti (.fc),"Human myoblasts; gene STAT2 NM_005419.2, vs uninfected, 24 hours after infection",2.11 log2 fold change
same,TLR3 expression ratio vs GFP (.fc),"Human myoblasts; gene TLR3 NM_003265.2, vs lenti-GFP, 24 hours after infection",1.67 log2 fold change
same,TLR3 expression ratio vs NoLenti (.fc),"Human myoblasts; gene TLR3 NM_003265.2, vs uninfected, 24 hours after infection",2.56 log2 fold change
same,TNFAIP2 expression ratio vs GFP (.fc),"Human myoblasts; gene TNFAIP2 NM_006291.2, vs lenti-GFP, 24 hours after infection",0.06 log2 fold change
same,TNFAIP2 expression ratio vs NoLenti (.fc),"Human myoblasts; gene TNFAIP2 NM_006291.2, vs uninfected, 24 hours after infection",1.06 log2 fold change
same,TNFAIP3 expression ratio vs GFP (.fc),"Human myoblasts; gene TNFAIP3 NM_006290.2, vs lenti-GFP, 24 hours after infection",0.28 log2 fold change
same,TNFAIP3 expression ratio vs NoLenti (.fc),"Human myoblasts; gene TNFAIP3 NM_006290.2, vs uninfected, 24 hours after infection",2.50 log2 fold change
same,TNFAIP6 expression ratio vs GFP (.fc),"Human myoblasts; gene TNFAIP6 NM_007115.2, vs lenti-GFP, 24 hours after infection",1.31 log2 fold change
same,TNFAIP6 expression ratio vs NoLenti (.fc),"Human myoblasts; gene TNFAIP6 NM_007115.2, vs uninfected, 24 hours after infection",5.10 log2 fold change
same,TNFRSF6B expression ratio vs GFP (.fc),"Human myoblasts; gene TNFRSF6B NM_032945.2, vs lenti-GFP, 24 hours after infection",0.01 log2 fold change
same,TNFRSF6B expression ratio vs NoLenti (.fc),"Human myoblasts; gene TNFRSF6B NM_032945.2, vs uninfected, 24 hours after infection",1.32 log2 fold change
same,TNFRSF10A expression ratio vs GFP (.fc),"Human myoblasts; gene TNFRSF10A NM_003844.2, vs lenti-GFP, 24 hours after infection",0.84 log2 fold change
same,TNFRSF10A expression ratio vs NoLenti (.fc),"Human myoblasts; gene TNFRSF10A NM_003844.2, vs uninfected, 24 hours after infection",1.81 log2 fold change
same,TNFRSF14 expression ratio vs GFP (.fc),"Human myoblasts; gene TNFRSF14 NM_003820.2, vs lenti-GFP, 24 hours after infection",0.57 log2 fold change
same,TNFRSF14 expression ratio vs NoLenti (.fc),"Human myoblasts; gene TNFRSF14 NM_003820.2, vs uninfected, 24 hours after infection",1.78 log2 fold change
same,TNFSF10 expression ratio vs GFP (.fc),"Human myoblasts; gene TNFSF10 NM_003810.2, vs lenti-GFP, 24 hours after infection",2.97 log2 fold change
same,TNFSF10 expression ratio vs NoLenti (.fc),"Human myoblasts; gene TNFSF10 NM_003810.2, vs uninfected, 24 hours after infection",3.88 log2 fold change
same,TNFSF13B expression ratio vs GFP (.fc),"Human myoblasts; gene TNFSF13B NM_006573.3, vs lenti-GFP, 24 hours after infection",2.19 log2 fold change
same,TNFSF13B expression ratio vs NoLenti (.fc),"Human myoblasts; gene TNFSF13B NM_006573.3, vs uninfected, 24 hours after infection",3.78 log2 fold change
same,number of the 341 lenti-GFP induced genes induced 2-fold or more,"Human myoblasts; vs uninfected cells, 24 hours",315 genes
same,toxicity of forced over-expression,[1],not toxic
